Columns and labels:
[1] = target: E. coli MRE600 tight-couple 70S ribosome (natural), translating the V50 hairpin mRNA (E. coli (endogenous in MRE600)) (UniProt P0A7K2); assay: optical tweezers with single-molecule fluorescence detection (fleezers); hairpin unwinding assay as a1, GDPNP:GTP ratio 1:9 at constant total nucleotide concentration; slow population of a bi-exponential fit
[2] = target: E. coli MRE600 tight-couple 70S ribosome (natural), translating the V50 hairpin mRNA (E. coli (endogenous in MRE600)) (UniProt P0A7K2); assay: optical tweezers with single-molecule fluorescence detection (fleezers); hairpin unwinding assay as a1, GDPNP:GTP ratio 3:1 at constant total nucleotide concentration; slow population of a bi-exponential fit
[3] = target: E. coli MRE600 tight-couple 70S ribosome (natural), translating the V50 hairpin mRNA (E. coli (endogenous in MRE600)) (UniProt P0A7K2); assay: optical tweezers with single-molecule fluorescence detection (fleezers); hairpin unwinding assay as a1, with a mixture of 1 mM GTP and 0.5 mM GTPγS; slow population of a bi-exponential fit
[4] = target: E. coli MRE600 tight-couple 70S ribosome (natural), translating the V50 hairpin mRNA (E. coli (endogenous in MRE600)) (UniProt P0A7K2); assay: optical tweezers with single-molecule fluorescence detection (fleezers); hairpin unwinding assay; ribosome stalled on the V50 mRNA hairpin tethered between two beads at ~14 pN (13.5-14.5 pN); 10 nM Cy3-labeled EF-G in the translation mix, 1 mM GTP, 1x TLC buffer (40 mM HEPES pH 7.5, 60 mM NH4Cl, 10 mM Mg(OAc)2, 6 mM βME)
[5] = target: S16-biotinylated E. coli 70S ribosome, translating the hairpin-less mRNA (E. coli) (UniProt P0A7K2); assay: optical tweezers with single-molecule fluorescence detection (fleezers); assisting force assay; ribosome tethered by biotinylated S16 to one bead and the 5' end of a hairpin-less mRNA to the other, 9-12 pN; Cy3-labeled EF-G in solution, GTP (1 mM stated for the H92Q and H92A mutants), 1x TLC buffer
[6] = target: E. coli MRE600 tight-couple 70S ribosome (natural), translating the V50 hairpin mRNA (E. coli (endogenous in MRE600)) (UniProt P0A7K2); assay: optical tweezers with single-molecule fluorescence detection (fleezers); hairpin unwinding assay as a1, with a mixture of 1 mM GTP and 0.5 mM GDPNP; slow population of a bi-exponential fit

Substance | τ release, slow (GDPNP) population [1] [s] | τ release, slow (GDPNP) population [2] [s] | τ release, slow (GTPγS) population [3] [s] | mean dwell time of unproductive binding events (τ unproductive) [4] [ms] | mean total dwell time of EF-G on the ribosome (τ unwinding + τ release) [4] [ms] | τ release (time between hairpin unwinding and EF-G release) [4] [s] | mean total dwell time of EF-G on the ribosome (τpre + τ post) [5] [ms] | τ release, slow (GDPNP) population [6] [s] | τ post (time between the mRNA step and EF-G unbinding) [5] [s]
Cy3-labeled EF-G, single-cysteine variant EF-G(S73C) (from UniProt P0A6M8 1-704) (enzyme) | 2.5 | 17 | 1.8 | 300 | 445 | 0.38 | 308 | 8.5 | 
Cy3-labeled H92A EF-G (made from EF-G(S73C)) (from UniProt P0A6M8 1-704) (enzyme) |  |  |  |  |  | 20 |  |  | > 20
Cy3-labeled H92Q EF-G (made from EF-G(S73C)) (from UniProt P0A6M8 1-704) (enzyme) |  |  |  |  |  | 2 |  |  | 

Source: article PMC12775393
